Legend:
[1] = target: recombinant HIV-1 gp120 ZM109 (HIV-1 strain ZM109); experiment: BLI; Octet Red96; recombinant gp120 coupled to AR2G biosensors, dipped into titrated SLBR-N; PBS with 0.1% BSA and 0.02% Tween 20; 1:1 global fit
[2] = target: recombinant HIV-1 gp120 ZM109 (HIV-1 strain ZM109); experiment: BLI; Octet Red96; anti-Env mAb 2219 (5 μg/mL) on AHC biosensors, then recombinant gp120 ZM109 (5 μg/mL), dipped into titrated FimH; PBS with 0.1% BSA and 0.02% Tween 20; 1:1 global fit

**Q.** How did the Kd [1] turn out when “Streptococcal Siglec-like lectin SLBR-N, GST-tagged (domain or fragment)” was run?
**A.** Its Kd is 0.0403 µM.

**Q.** How did the Kd [2] turn out when “recombinant FimH protein (lectin domain only) (from UniProt P08191 22-179) (domain or fragment)” was run?
**A.** Its Kd is 0.36 µM.

— paper PMC9949255
